± gives the half width of the 95% confidence interval.

A short description of series [1]: folding stability dG unfold (combined trypsin and chymotrypsin); higher = more stable. The essentials:
(§1)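 Designed mini-proteins (under 80 residues, no cysteine) in a PA-tagged cDNA display construct were digested with trypsin and chymotrypsin. Each protease was used at 11 concentrations (threefold dilutions) plus a no-protease condition, followed by sequencing. K50 was inferred by Bayesian fitting of sequencing counts, and unfolding free energy was derived against a sequence-predicted unfolded-state K50 and a shared folded-state K50, per protease or combined. Only designs with AlphaFold2 dimer inter-PAE above 15 were kept.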

A short description of series [2]: folding stability dG unfold from trypsin proteolysis; higher = more stable. The essentials: as §1
Series [3] in a line: folding stability dG unfold from chymotrypsin proteolysis; higher = more stable. The method in brief:
as §1

As to “SAGGSAGGMTIEVTFPDGTKLTITLENDGPDTLLATAEVEAPRAGGPSIPKEVAAKLAEELLASSAGGSAGG [r6_234_TrMRF]”, the “folding stability dG unfold” value in series [1] amounted to 1.36 ± 0.12 kcal/mol; in series [2], 1.19 ± 0.061 kcal/mol; in series [3], 1.62 ± 0.081 kcal/mol.

With “SAGGSAGGMTKDDIIEKLKKEYPDKDVKVLKVEESVLPSGKILAKVTLEFPEEGKTFEKTFEVESAGGSAGG [r6_572_JUSTAS]”, the “folding stability dG unfold” value in series [1] was 2.71 ± 0.2 kcal/mol; in series [2], 2.91 ± 0.3 kcal/mol; in series [3], 2.69 ± 0.13 kcal/mol.

As to “SAGGSAGGMTLEIEVNGKKIKIEVIKDKETNRYFVRITVDGKEVLIEADSKEDALKAIKELLKKSAGGSAGG [r6_715_TrROS_Hall]”, the results for the “folding stability dG unfold” value in series [1], in series [2] and in series [3] were 4.12 ± 0.077 kcal/mol, 2.93 ± 0.059 kcal/mol and 4.42 ± 0.076 kcal/mol, respectively.

For “SAGGSAGGMTLTVDLPLPDGGTVRLEVEPLPDGTVRVRLTYPDGRKAEFETSAPVEVLLERAAGSAGGSAGG [r6_808_TrMRF]”, the “folding stability dG unfold” value in series [1] was 2.69 ± 0.086 kcal/mol; in series [2], 1.61 ± 0.026 kcal/mol; in series [3] it was 3.05 ± 0.054 kcal/mol.

Consider “SAGGSAGGMTPEEERRKKESPVPPVNKVTVKIPVPSSVSEEVAKEIAEKLEKESGAKKVEVILPSAGGSAGG [r6_517_JUSTAS]”, for which the results for the “folding stability dG unfold” value in series [1], in series [2] and in series [3] were 1 ± 0.091 kcal/mol, 0.257 ± 0.042 kcal/mol and 1.34 ± 0.098 kcal/mol, respectively.

As for “SAGGSAGGMTPEELAEQKAEELREKLLAEGRPVSLKITKVTYEVDPKTGTVKVTSDIEIVYGPGSAGGSAGG [r6_454_JUSTAS]”, the figures for the “folding stability dG unfold” value in series [1], in series [2] and in series [3] were 0.986 ± 0.24 kcal/mol, 1.04 ± 0.08 kcal/mol and 0.434 ± 0.29 kcal/mol, respectively.

“SAGGSAGGMTSDKPVLPALIRVYYPNEGREETIPVLLGEDMPLEEALRIARELAHPDAKAEILNSAGGSAGG [r6_440_TrMRF]”: the figures for the “folding stability dG unfold” value in series [1], in series [2] and in series [3] were 0.395 ± 0.06 kcal/mol, -0.183 ± 0.093 kcal/mol and 0.624 ± 0.053 kcal/mol, respectively.

Regarding “SAGGSAGGMTTVTYDPSTGVTTVLTPKTDPTSDETSVVTTTVTLPTSPSGGGGTATTTTTTTASSAGGSAGG [r6_952_JUSTAS]”, the figures for the “folding stability dG unfold” value in series [1], in series [2] and in series [3] were 1.18 ± 0.045 kcal/mol, 0.74 ± 0.051 kcal/mol and 1.39 ± 0.024 kcal/mol, respectively.

“SAGGSAGGMVFENLSEEEAKIIAKNIAENFKKKYPNVKIKVEAEVYKLPNPKVIVVIKLEIEEESAGGSAGG [r6_787_TrMRF]”: the “folding stability dG unfold” value in series [1] turned out to be 3.09 ± 0.15 kcal/mol; in series [2], 2.55 ± 0.086 kcal/mol; in series [3], 3.54 ± 0.07 kcal/mol.

In the case of “SAGGSAGGMVIPFILPGSEFEEEEAIERLLELIETARELNPDTPIIANPLILEVPPPPTETELGSAGGSAGG [r6_728_TrMRF]”, the “folding stability dG unfold” value in series [1] came out at 1.22 ± 0.28 kcal/mol; in series [2] it was 1.36 ± 0.099 kcal/mol; in series [3] it was 0.538 ± 0.13 kcal/mol.

Turning to “SAGGSAGGMVIVFDKKNKTIYIYDKKTGKKIEIKVKSIEEAKEAIKKLFPNKKVEIVEVKIFKPSAGGSAGG [r6_286_TrROS_Hall]”, the “folding stability dG unfold” value in series [1] stood at 1.76 ± 0.2 kcal/mol; in series [2] it was 1.43 ± 0.065 kcal/mol; in series [3], 1.9 ± 0.09 kcal/mol.

As to “SAGGSAGGMVKLKVYKIPESVPPELRALLEALVEGEGEVEVEPEEAEALLKLPGIEELEVEELESAGGSAGG [r6_381_TrMRF]”, the “folding stability dG unfold” value in series [1] was 1.59 ± 0.077 kcal/mol; in series [2], 0.912 ± 0.021 kcal/mol; in series [3], 1.84 ± 0.059 kcal/mol.

As to “SAGGSAGGMVLVLRFPLGEPALIALYDPETGEVHVYDPGTRELLGTFPLPIEDFLELGAEAEPVSAGGSAGG [r6_831_TrMRF]”, the entries for the “folding stability dG unfold” value in series [1], in series [2] and in series [3] were 1.84 ± 0.12 kcal/mol, 0.698 ± 0.051 kcal/mol and 2.2 ± 0.094 kcal/mol, respectively.

As for “SAGGSAGGMVTFTVEYESDPALLEKLKEELPGVEILEVKREGPKKTITITIKVPSEEKAKKFLSSAGGSAGG [r6_334_JUSTAS]”, the “folding stability dG unfold” value stood at 1 ± 0.12 kcal/mol in series [1], 0.704 ± 0.086 kcal/mol in series [2] and 1.16 ± 0.11 kcal/mol in series [3].

For “SAGGSAGGMVTVPVPKDKPLNPVATVKLPDGSTIPAGPVAVDLEKGTATLEVPEPAEVIVEVNPSAGGSAGG [r6_180_JUSTAS]”, the figures for the “folding stability dG unfold” value in series [1], in series [2] and in series [3] were 1.01 ± 0.037 kcal/mol, 0.0542 ± 0.08 kcal/mol and 1.36 ± 0.023 kcal/mol, respectively.

In the case of “SAGGSAGGNKIWIPITITFMVPVRKDPDGKPKLSPEDPDRWKPVEFEIPIEIDPDPDNGKIKIWSAGGSAGG [r6_537_TrROS]”, the “folding stability dG unfold” value in series [1] amounted to 1.26 ± 0.24 kcal/mol; in series [2] it was 1.5 ± 0.042 kcal/mol; in series [3], 0.701 ± 0.25 kcal/mol.

For the sequence “SAGGSAGGNKPIMVRIKIWHDNGKTRRFFVQIPEGFDDPSELASELAKEFNKQYPNYRIEVEPFSAGGSAGG [r6_132_TrROS]”, the “folding stability dG unfold” value in series [1] is 2.78 ± 0.13 kcal/mol; in series [2], 2.55 ± 0.052 kcal/mol; in series [3], 2.86 ± 0.03 kcal/mol.

Turning to “SAGGSAGGNKSYTVIIRFPMKRKEDPDGEDKKPRPVTIEYTVKSPEDANELKNKLKDNGAEIVPSAGGSAGG [r6_141_TrROS]”, the “folding stability dG unfold” value turned out to be 0.531 ± 0.12 kcal/mol in series [1], 0.263 ± 0.15 kcal/mol in series [2] and 0.698 ± 0.12 kcal/mol in series [3].

For “SAGGSAGGNMIPVKARMKWPDGKEFPFEIMVQYQPDGQMQIEIQNPGDGETVTFPNMKLIDVEISAGGSAGG [r6_255_TrROS]”, the “folding stability dG unfold” value in series [1] was 0.469 ± 0.06 kcal/mol; in series [2], -0.656 ± 0.26 kcal/mol; in series [3] it was 0.828 ± 0.021 kcal/mol.

On to “SAGGSAGGNTITVFMPYSQARELAEELRDEGITVDIQPYPDWMFITVEIKVPKIDPEDNPDNKDSAGGSAGG [r6_392_TrROS]”, for which the “folding stability dG unfold” value in series [1] was 1.35 ± 0.089 kcal/mol; in series [2] it was 1.43 ± 0.047 kcal/mol; in series [3] it was 1.3 ± 0.074 kcal/mol.

For the sequence “SAGGSAGGPEIDLKEVRVFYPPGGERLVLVEVRDDVPLEQVRDWVLERGGEFYRELPNQILVRGSAGGSAGG [r6_543_TrMRF]”, the results for the “folding stability dG unfold” value in series [1], in series [2] and in series [3] were -0.00273 ± 0.18 kcal/mol, 0.0648 ± 0.21 kcal/mol and -0.179 ± 0.34 kcal/mol, respectively.

In the case of “SAGGSAGGPEITIIIGNAGPIEVALKTAKEIKKILEEKGYPNVKIPILIIPFGSPEKLKEALGGSAGGSAGG [r6_476_TrMRF]”, the results for the “folding stability dG unfold” value in series [1], in series [2] and in series [3] were 0.383 ± 0.29 kcal/mol, 0.0997 ± 0.1 kcal/mol and -0.0243 ± 0.32 kcal/mol, respectively.

Regarding “SAGGSAGGPEVKILKVDPENNTITLALPVDNEILLLEIKIEPDPENPNSFKATIELKVFPYNEASAGGSAGG [r6_371_TrMRF]”, the figures for the “folding stability dG unfold” value in series [1], in series [2] and in series [3] were 2.8 ± 0.26 kcal/mol, 2.33 ± 0.28 kcal/mol and 3.21 ± 0.096 kcal/mol, respectively.

“SAGGSAGGPEYQMIPVKNVEIDEFDPNDGNVTIKFKGNGQEIKLPPDGIQSIEISPDQGWIYIRSAGGSAGG [r6_315_TrROS]”: the “folding stability dG unfold” value in series [1] was -0.273 ± 0.12 kcal/mol; in series [2] it was -0.318 ± 0.093 kcal/mol; in series [3], -0.365 ± 0.22 kcal/mol.

Turning to “SAGGSAGGPKEYYRVTVYVRNKDGEWEKVAEIEVPGMTEEELKELLAKLGLPPGAEVEIKIEKVSAGGSAGG [r6_88_TrROS_Hall]”, the “folding stability dG unfold” value is 5.01 ± 0.21 kcal/mol in series [1], 5.02 ± 0.49 kcal/mol in series [2] and 4.92 ± 0.15 kcal/mol in series [3].

Regarding “SAGGSAGGPLENDIPIPLTVPLPGPGTAELFLLPSTGEVLALVEGKPYLVSLEDLKDGVFRLGLSAGGSAGG [r6_939_TrMRF]”, the “folding stability dG unfold” value in series [1] was 0.576 ± 0.12 kcal/mol; in series [2], -0.577 ± 0.36 kcal/mol; in series [3] it was 0.989 ± 0.17 kcal/mol.

Consider “SAGGSAGGPLRIEIEIKIEIFPFPDGWYLIRMTIKIKVYNPGEDGQPIAEYEITFYFIIPPGDFSAGGSAGG [r6_60_TrROS]”, for which the “folding stability dG unfold” value is more than 6 kcal/mol in series [1], 4.25 ± 0.17 kcal/mol in series [2] and 6.06 ± 0.15 kcal/mol in series [3].

For the origin of these results see the supplement of paper PMC12764529.
